Data from patent US20230357342A1.

Tests used:
[1] = molecular target: PEGylated modified IL-18 polypeptide SEQ ID NO: 4 + PEG (E6K, C38A, K53A, C68A, M86C-30kPEG) (human) (UniProt Q14116); assay: cell-based or functional assay
[2] = molecular target: PEGylated modified IL-18 polypeptide SEQ ID NO: 5 + PEG (E6K, V11I, C38A, K53A, T63A, C68A, C76A, C127A, M86C-30kPEG) (human) (UniProt Q14116); assay: cell-based or functional assay
[3] = molecular target: PEGylated modified IL-18 polypeptide SEQ ID NO: 6 + PEG (E6K, V11I, C38A, K53A, T63A, C68A, C76A, C127A, D98C-30kPEG) (human) (UniProt Q14116); assay: cell-based or functional assay
[4] = molecular target: PEGylated modified IL-18 polypeptide SEQ ID NO: 9 + PEG (E6K, C38A, K53A, C68A, D98C-30kPEG) (human) (UniProt Q14116); assay: cell-based or functional assay
PEGylated modified IL-18 polypeptide SEQ ID NO: 9 + PEG (E6K, C38A, K53A, C68A, D98C-30kPEG) (human), sequence (Q14116 other isoform, or with tags, fused parts or gaps C38A K53A C68A D98C C38A K53A C68A D98C): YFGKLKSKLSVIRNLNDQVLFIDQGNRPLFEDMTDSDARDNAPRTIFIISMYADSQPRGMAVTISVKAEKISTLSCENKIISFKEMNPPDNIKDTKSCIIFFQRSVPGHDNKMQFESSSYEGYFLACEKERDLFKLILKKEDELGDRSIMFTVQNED

[5] = molecular target: modified IL-18 polypeptide SEQ ID NO: 11 (E6K, V11I, C38A, K53A, C76A, C127A) (human) (UniProt Q14116); assay: cell-based or functional assay
[6] = molecular target: modified IL-18 polypeptide SEQ ID NO: 204 (V11I, C38A, K53A, C76A, C127A) (human) (UniProt Q14116); assay: cell-based or functional assay
[7] = molecular target: modified IL-18 polypeptide SEQ ID NO: 205 (V11I, C38A, K53A, T63A, C76A, C127A) (human) (UniProt Q14116); assay: cell-based or functional assay
modified IL-18 polypeptide SEQ ID NO: 205 (V11I, C38A, K53A, T63A, C76A, C127A) (human), sequence (Q14116 37-193 V47I/C74A/K89A/T99A/C112A/C163A): as the sequence (Q14116 other isoform, or with tags, fused parts or gaps C38A K53A C68A D98C C38A K53A C68A D98C) above, with K6E, V11I, T63A, A68C, C76A, C98D, C127A counted along it

[8] = molecular target: modified IL-18 polypeptide SEQ ID NO: 206 (V11I, C38A, K53A, S55A, C76A, C127A) (human) (UniProt Q14116); assay: cell-based or functional assay
modified IL-18 polypeptide SEQ ID NO: 206 (V11I, C38A, K53A, S55A, C76A, C127A) (human), sequence (Q14116 37-193 V47I/C74A/K89A/S91A/C112A/C163A): as the sequence (Q14116 other isoform, or with tags, fused parts or gaps C38A K53A C68A D98C C38A K53A C68A D98C) above, with K6E, V11I, S55A, A68C, C76A, C98D, C127A counted along it

[9] = molecular target: modified IL-18 polypeptide SEQ ID NO: 207 (V11I, C38A, M51G, K53A, C76A, C127A) (human) (UniProt Q14116); assay: cell-based or functional assay
[10] = molecular target: modified IL-18 polypeptide SEQ ID NO: 208 (V11I, C38A, K53A, D54A, C76A, C127A) (human) (UniProt Q14116); assay: cell-based or functional assay
[11] = molecular target: modified IL-18 polypeptide SEQ ID NO: 209 (F2A, V11I, C38A, K53A, C76A, C127A) (human) (UniProt Q14116); assay: cell-based or functional assay
modified IL-18 polypeptide SEQ ID NO: 209 (F2A, V11I, C38A, K53A, C76A, C127A) (human), sequence (Q14116 other isoform, or with tags, fused parts or gaps V11I C38A K53A C76A C127A V11I C38A K53A C76A C127A): as the sequence (Q14116 other isoform, or with tags, fused parts or gaps C38A K53A C68A D98C C38A K53A C68A D98C) above, with F2A, K6E, V11I, A68C, C76A, C98D, C127A counted along it

[12] = molecular target: modified IL-18 polypeptide SEQ ID NO: 210 (V11I, E31A, C38A, K53A, C76A, C127A) (human) (UniProt Q14116); assay: cell-based or functional assay
[13] = molecular target: modified IL-18 polypeptide SEQ ID NO: 211 (V11I, T34A, C38A, K53A, C76A, C127A) (human) (UniProt Q14116); assay: cell-based or functional assay
[14] = molecular target: modified IL-18 polypeptide SEQ ID NO: 212 (V11I, D35A, C38A, K53A, C76A, C127A) (human) (UniProt Q14116); assay: cell-based or functional assay
[15] = molecular target: modified IL-18 polypeptide SEQ ID NO: 213 (V11I, S36A, C38A, K53A, C76A, C127A) (human) (UniProt Q14116); assay: cell-based or functional assay
modified IL-18 polypeptide SEQ ID NO: 213 (V11I, S36A, C38A, K53A, C76A, C127A) (human), sequence (Q14116 37-193 V47I/S72A/C74A/K89A/C112A/C163A): as the sequence (Q14116 other isoform, or with tags, fused parts or gaps C38A K53A C68A D98C C38A K53A C68A D98C) above, with K6E, V11I, S36A, A68C, C76A, C98D, C127A counted along it

[16] = molecular target: modified IL-18 polypeptide SEQ ID NO: 214 (V11I, D37A, C38A, K53A, C76A, C127A) (human) (UniProt Q14116); assay: cell-based or functional assay
modified IL-18 polypeptide SEQ ID NO: 214 (V11I, D37A, C38A, K53A, C76A, C127A) (human), sequence (Q14116 37-193 V47I/D73A/C74A/K89A/C112A/C163A): as the sequence (Q14116 other isoform, or with tags, fused parts or gaps C38A K53A C68A D98C C38A K53A C68A D98C) above, with K6E, V11I, D37A, A68C, C76A, C98D, C127A counted along it

[17] = molecular target: modified IL-18 polypeptide SEQ ID NO: 215 (V11I, E31A, D37A, C38A, K53A, C76A, C127A) (human) (UniProt Q14116); assay: cell-based or functional assay
modified IL-18 polypeptide SEQ ID NO: 215 (V11I, E31A, D37A, C38A, K53A, C76A, C127A) (human), sequence (Q14116 37-193 V47I/E67A/D73A/C74A/K89A/C112A/C163A): as the sequence (Q14116 other isoform, or with tags, fused parts or gaps C38A K53A C68A D98C C38A K53A C68A D98C) above, with K6E, V11I, E31A, D37A, A68C, C76A, C98D, C127A counted along it

[18] = molecular target: modified IL-18 polypeptide SEQ ID NO: 216 (V11I, C38A, D40A, K53A, C76A, C127A) (human) (UniProt Q14116); assay: cell-based or functional assay
modified IL-18 polypeptide SEQ ID NO: 216 (V11I, C38A, D40A, K53A, C76A, C127A) (human), sequence (Q14116 37-193 V47I/C74A/D76A/K89A/C112A/C163A): as the sequence (Q14116 other isoform, or with tags, fused parts or gaps C38A K53A C68A D98C C38A K53A C68A D98C) above, with K6E, V11I, D40A, A68C, C76A, C98D, C127A counted along it

[19] = molecular target: modified IL-18 polypeptide SEQ ID NO: 217 (V11I, C38A, N41A, K53A, C76A, C127A) (human) (UniProt Q14116); assay: cell-based or functional assay
modified IL-18 polypeptide SEQ ID NO: 217 (V11I, C38A, N41A, K53A, C76A, C127A) (human), sequence (Q14116 37-193 V47I/C74A/N77A/K89A/C112A/C163A): as the sequence (Q14116 other isoform, or with tags, fused parts or gaps C38A K53A C68A D98C C38A K53A C68A D98C) above, with K6E, V11I, N41A, A68C, C76A, C98D, C127A counted along it

[20] = molecular target: modified IL-18 polypeptide SEQ ID NO: 218 (V11I, C38A, K53A, C76A, C127A, D132A) (human) (UniProt Q14116); assay: cell-based or functional assay
[21] = molecular target: modified IL-18 polypeptide SEQ ID NO: 219 (V11I, C38A, K53A, C76A, G108A, C127A) (human) (UniProt Q14116); assay: cell-based or functional assay
modified IL-18 polypeptide SEQ ID NO: 219 (V11I, C38A, K53A, C76A, G108A, C127A) (human), sequence (Q14116 37-193 V47I/C74A/K89A/C112A/G144A/C163A): as the sequence (Q14116 other isoform, or with tags, fused parts or gaps C38A K53A C68A D98C C38A K53A C68A D98C) above, with K6E, V11I, A68C, C76A, C98D, G108A, C127A counted along it

[22] = molecular target: modified IL-18 polypeptide SEQ ID NO: 220 (V11I, C38A, K53A, C76A, H109A, C127A) (human) (UniProt Q14116); assay: cell-based or functional assay
modified IL-18 polypeptide SEQ ID NO: 220 (V11I, C38A, K53A, C76A, H109A, C127A) (human), sequence (Q14116 37-193 V47I/C74A/K89A/C112A/H145A/C163A): as the sequence (Q14116 other isoform, or with tags, fused parts or gaps C38A K53A C68A D98C C38A K53A C68A D98C) above, with K6E, V11I, A68C, C76A, C98D, H109A, C127A counted along it

[23] = molecular target: modified IL-18 polypeptide SEQ ID NO: 221 (V11I, C38A, K53A, C76A, D110A, C127A) (human) (UniProt Q14116); assay: cell-based or functional assay
modified IL-18 polypeptide SEQ ID NO: 221 (V11I, C38A, K53A, C76A, D110A, C127A) (human), sequence (Q14116 37-193 V47I/C74A/K89A/C112A/D146A/C163A): as the sequence (Q14116 other isoform, or with tags, fused parts or gaps C38A K53A C68A D98C C38A K53A C68A D98C) above, with K6E, V11I, A68C, C76A, C98D, D110A, C127A counted along it

[24] = molecular target: modified IL-18 polypeptide SEQ ID NO: 222 (K8R, V11I, C38A, C76A, Q103E, C127A) (human) (UniProt Q14116); assay: cell-based or functional assay
modified IL-18 polypeptide SEQ ID NO: 222 (K8R, V11I, C38A, C76A, Q103E, C127A) (human), sequence (Q14116 other isoform, or with tags, fused parts or gaps V11I C38A C76A Q103E C127A V11I C38A C76A Q103E C127A): as the sequence (Q14116 other isoform, or with tags, fused parts or gaps C38A K53A C68A D98C C38A K53A C68A D98C) above, with K6E, K8R, V11I, A53K, A68C, C76A, C98D, Q103E, C127A counted along it

[25] = molecular target: modified IL-18 polypeptide SEQ ID NO: 223 (K8E, V11I, C38A, C76A, Q103R, C127A) (human) (UniProt Q14116); assay: cell-based or functional assay
modified IL-18 polypeptide SEQ ID NO: 223 (K8E, V11I, C38A, C76A, Q103R, C127A) (human), sequence (Q14116 other isoform, or with tags, fused parts or gaps V11I C38A C76A Q103R C127A V11I C38A C76A Q103R C127A): as the sequence (Q14116 other isoform, or with tags, fused parts or gaps C38A K53A C68A D98C C38A K53A C68A D98C) above, with K6E, K8E, V11I, A53K, A68C, C76A, C98D, Q103R, C127A counted along it

[26] = molecular target: modified IL-18 polypeptide SEQ ID NO: 224 (V11I, C38A, C76A, Q103K, C127A) (human) (UniProt Q14116); assay: cell-based or functional assay
[27] = molecular target: modified IL-18 polypeptide SEQ ID NO: 225 (V11I, C38A, S55H, C76A, C127A) (human) (UniProt Q14116); assay: cell-based or functional assay
modified IL-18 polypeptide SEQ ID NO: 225 (V11I, C38A, S55H, C76A, C127A) (human), sequence (Q14116 37-193 V47I/C74A/S91H/C112A/C163A): as the sequence (Q14116 other isoform, or with tags, fused parts or gaps C38A K53A C68A D98C C38A K53A C68A D98C) above, with K6E, V11I, A53K, S55H, A68C, C76A, C98D, C127A counted along it

[28] = molecular target: modified IL-18 polypeptide SEQ ID NO: 226 (V11I, C38A, S55R, C76A, C127A) (human) (UniProt Q14116); assay: cell-based or functional assay
[29] = molecular target: modified IL-18 polypeptide SEQ ID NO: 227 (V11I, C38A, S55T, C76A, C127A) (human) (UniProt Q14116); assay: cell-based or functional assay
modified IL-18 polypeptide SEQ ID NO: 227 (V11I, C38A, S55T, C76A, C127A) (human), sequence (Q14116 37-193 V47I/C74A/S91T/C112A/C163A): as the sequence (Q14116 other isoform, or with tags, fused parts or gaps C38A K53A C68A D98C C38A K53A C68A D98C) above, with K6E, V11I, A53K, S55T, A68C, C76A, C98D, C127A counted along it

[30] = molecular target: modified IL-18 polypeptide SEQ ID NO: 228 (V11I, C38A, C76A, S105I, C127A) (human) (UniProt Q14116); assay: cell-based or functional assay
modified IL-18 polypeptide SEQ ID NO: 228 (V11I, C38A, C76A, S105I, C127A) (human), sequence (Q14116 37-193 V47I/C74A/C112A/S141I/C163A): as the sequence (Q14116 other isoform, or with tags, fused parts or gaps C38A K53A C68A D98C C38A K53A C68A D98C) above, with K6E, V11I, A53K, A68C, C76A, C98D, S105I, C127A counted along it

[31] = molecular target: modified IL-18 polypeptide SEQ ID NO: 229 (V11I, C38A, C76A, S105K, C127A) (human) (UniProt Q14116); assay: cell-based or functional assay
modified IL-18 polypeptide SEQ ID NO: 229 (V11I, C38A, C76A, S105K, C127A) (human), sequence (Q14116 37-193 V47I/C74A/C112A/S141K/C163A): as the sequence (Q14116 other isoform, or with tags, fused parts or gaps C38A K53A C68A D98C C38A K53A C68A D98C) above, with K6E, V11I, A53K, A68C, C76A, C98D, S105K, C127A counted along it

[32] = molecular target: modified IL-18 polypeptide SEQ ID NO: 28 (E6K, C38A, K53A, T63A, C76A, C127A) (human) (UniProt Q14116); assay: cell-based or functional assay
[33] = molecular target: modified IL-18 polypeptide SEQ ID NO: 30 (E6K, V11I, C38A, K53A, T63A, C76A, C127A) (human) (UniProt Q14116); assay: cell-based or functional assay
modified IL-18 polypeptide SEQ ID NO: 30 (E6K, V11I, C38A, K53A, T63A, C76A, C127A) (human), sequence (Q14116 other isoform, or with tags, fused parts or gaps with the stated changes): as the sequence (Q14116 other isoform, or with tags, fused parts or gaps C38A K53A C68A D98C C38A K53A C68A D98C) above, with V11I, T63A, A68C, C76A, C98D, C127A counted along it

[34] = molecular target: modified IL-18 polypeptide SEQ ID NO: 4 (E6K, C38A, K53A, C68A, M86C) (human) (UniProt Q14116); assay: cell-based or functional assay
[35] = molecular target: modified IL-18 polypeptide SEQ ID NO: 5 (E6K, V11I, C38A, K53A, T63A, C68A, C76A, M86C, C127A) (human) (UniProt Q14116); assay: cell-based or functional assay
[36] = molecular target: modified IL-18 polypeptide SEQ ID NO: 57 (E6K, C38S, K53A) (human) (UniProt Q14116); assay: cell-based or functional assay
modified IL-18 polypeptide SEQ ID NO: 57 (E6K, C38S, K53A) (human), sequence (Q14116 other isoform, or with tags, fused parts or gaps C38S K53A C38S K53A): as the sequence (Q14116 other isoform, or with tags, fused parts or gaps C38A K53A C68A D98C C38A K53A C68A D98C) above, with A38S, A68C, C98D counted along it

[37] = molecular target: modified IL-18 polypeptide SEQ ID NO: 59 (E6K, C38A, K53A) (human) (UniProt Q14116); assay: cell-based or functional assay
modified IL-18 polypeptide SEQ ID NO: 59 (E6K, C38A, K53A) (human), sequence (Q14116 other isoform, or with tags, fused parts or gaps C38A K53A C38A K53A): as the sequence (Q14116 other isoform, or with tags, fused parts or gaps C38A K53A C68A D98C C38A K53A C68A D98C) above, with A68C, C98D counted along it

[38] = molecular target: modified IL-18 polypeptide SEQ ID NO: 6 (E6K, V11I, C38A, K53A, T63A, C68A, C76A, D98C, C127A) (human) (UniProt Q14116); assay: cell-based or functional assay
[39] = molecular target: modified IL-18 polypeptide SEQ ID NO: 60 (E6K, C38Q, K53A) (human) (UniProt Q14116); assay: cell-based or functional assay
[40] = molecular target: modified IL-18 polypeptide SEQ ID NO: 61 (E6K, C38A, K53A, C76A) (human) (UniProt Q14116); assay: cell-based or functional assay
modified IL-18 polypeptide SEQ ID NO: 61 (E6K, C38A, K53A, C76A) (human), sequence (Q14116 other isoform, or with tags, fused parts or gaps C38A K53A C76A C38A K53A C76A): as the sequence (Q14116 other isoform, or with tags, fused parts or gaps C38A K53A C68A D98C C38A K53A C68A D98C) above, with A68C, C76A, C98D counted along it

[41] = molecular target: modified IL-18 polypeptide SEQ ID NO: 62 (E6K, C38A, K53A, C127A) (human) (UniProt Q14116); assay: cell-based or functional assay
[42] = molecular target: modified IL-18 polypeptide SEQ ID NO: 63 (E6K, C38A, K53A, C76A, C127A) (human) (UniProt Q14116); assay: cell-based or functional assay
modified IL-18 polypeptide SEQ ID NO: 63 (E6K, C38A, K53A, C76A, C127A) (human), sequence (Q14116 other isoform, or with tags, fused parts or gaps C38A K53A C76A C127A C38A K53A C76A C127A): as the sequence (Q14116 other isoform, or with tags, fused parts or gaps C38A K53A C68A D98C C38A K53A C68A D98C) above, with A68C, C76A, C98D, C127A counted along it

[43] = molecular target: modified IL-18 polypeptide SEQ ID NO: 8 (E6K, V11I, C38A, K53A, T63A, C68A, C76A, T95C, C127A) (human) (UniProt Q14116); assay: cell-based or functional assay
modified IL-18 polypeptide SEQ ID NO: 8 (E6K, V11I, C38A, K53A, T63A, C68A, C76A, T95C, C127A) (human), sequence (Q14116 other isoform, or with tags, fused parts or gaps with the stated changes): as the sequence (Q14116 other isoform, or with tags, fused parts or gaps C38A K53A C68A D98C C38A K53A C68A D98C) above, with V11I, T63A, C76A, T95C, C98D, C127A counted along it

[44] = molecular target: modified IL-18 polypeptide SEQ ID NO: 9 (E6K, C38A, K53A, C68A, D98C) (human) (UniProt Q14116); assay: cell-based or functional assay
modified IL-18 polypeptide SEQ ID NO: 9 (E6K, C38A, K53A, C68A, D98C) (human), sequence (Q14116 other isoform, or with tags, fused parts or gaps C38A K53A C68A D98C C38A K53A C68A D98C): as the sequence (Q14116 other isoform, or with tags, fused parts or gaps C38A K53A C68A D98C C38A K53A C68A D98C) above

[45] = molecular target: wild type IL-18 (SEQ ID NO: 1, native sequence) (human) (UniProt Q14116); assay: cell-based or functional assay
wild type IL-18 (SEQ ID NO: 1, native sequence) (human), sequence (Q14116 37-193): as the sequence (Q14116 other isoform, or with tags, fused parts or gaps C38A K53A C68A D98C C38A K53A C68A D98C) above, with K6E, A38C, A53K, A68C, C98D counted along it

[46] = molecular target: Fc fused human IL-18BP isoform a (IL-18BPa) (human) (UniProt O95998); assay: SPR, Fc-IL-18BPa captured via anti-human IgG, IL-18 as analyte, 1:1 model
Fc fused human IL-18BP isoform a (IL-18BPa) (human), sequence (O95998 31-194): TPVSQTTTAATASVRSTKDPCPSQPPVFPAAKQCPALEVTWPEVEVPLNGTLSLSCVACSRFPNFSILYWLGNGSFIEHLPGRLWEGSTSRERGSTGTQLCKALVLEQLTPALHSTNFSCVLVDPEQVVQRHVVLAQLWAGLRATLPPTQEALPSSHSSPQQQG

[47] = molecular target: His-tagged human IL-18BP (human) (UniProt O95998); assay: alphaLISA of free IL-18BP after 1 h with titrated IL-18

wild type IL-18 (SEQ ID NO: 1, native sequence), sequence (Q14116 37-193): as the sequence (Q14116 other isoform, or with tags, fused parts or gaps C38A K53A C68A D98C C38A K53A C68A D98C) above, with K6E, A38C, A53K, A68C, C98D counted along it

## Fc fused human IL-18BP isoform a (IL-18BPa) (from UniProt O95998 31-194) (Fc fusion)
[1]
  IC50, IFNγ secretion by NK-92 cells: 34 nM
[2]
  IC50, IFNγ secretion by NK-92 cells: 12 nM
[3]
  IC50, IFNγ secretion by NK-92 cells: 14.3 nM
[4]
  IC50, IFNγ secretion by NK-92 cells: 27.2 nM
[5]
  IC50, IFNγ secretion by NK-92 cells: 532 nM
[6]
  IC50, IFNγ secretion by NK-92 cells: 1.62 nM
[7]
  IC50, IFNγ secretion by NK-92 cells: 7.52 nM
[8]
  IC50, IFNγ secretion by NK-92 cells: 10.2 nM
[9]
  IC50, IFNγ secretion by NK-92 cells: 733 nM
[10]
  IC50, IFNγ secretion by NK-92 cells: 47.6 nM
[11]
  IC50, IFNγ secretion by NK-92 cells: 5.05 nM
[12]
  IC50, IFNγ secretion by NK-92 cells: 1.17 nM
[13]
  IC50, IFNγ secretion by NK-92 cells: 21.3 nM
[14]
  IC50, IFNγ secretion by NK-92 cells: 3.62 nM
[15]
  IC50, IFNγ secretion by NK-92 cells: 7.85 nM
[16]
  IC50, IFNγ secretion by NK-92 cells: 2.22 nM
[17]
  IC50, IFNγ secretion by NK-92 cells: 3.71 nM
[18]
  IC50, IFNγ secretion by NK-92 cells: 3.23 nM
[19]
  IC50, IFNγ secretion by NK-92 cells: 0.681 nM
[20]
  IC50, IFNγ secretion by NK-92 cells: 6.08 nM
[21]
  IC50, IFNγ secretion by NK-92 cells: 3.98 nM
[22]
  IC50, IFNγ secretion by NK-92 cells: 1.81 nM
[23]
  IC50, IFNγ secretion by NK-92 cells: 3.18 nM
[24]
  IC50, IFNγ secretion by NK-92 cells: 1.07 nM
[25]
  IC50, IFNγ secretion by NK-92 cells: 7.29 nM
[26]
  IC50, IFNγ secretion by NK-92 cells: 0.823 nM
[27]
  IC50, IFNγ secretion by NK-92 cells: 0.456 nM
[28]
  IC50, IFNγ secretion by NK-92 cells: 0.885 nM
[29]
  IC50, IFNγ secretion by NK-92 cells: 0.44 nM
[30]
  IC50, IFNγ secretion by NK-92 cells: 0.809 nM
[31]
  IC50, IFNγ secretion by NK-92 cells: 0.176 nM
[32]
  IC50, IFNγ secretion by NK-92 cells: 233 nM
[33]
  IC50, IFNγ secretion by NK-92 cells: 488 nM
[34]
  IC50, IFNγ secretion by NK-92 cells: 396 nM
[35]
  IC50, IFNγ secretion by NK-92 cells: 62.4 nM
[36]
  IC50, IFNγ secretion by NK-92 cells: 146 nM
[37]
  IC50, IFNγ secretion by NK-92 cells: 654 nM
[38]
  IC50, IFNγ secretion by NK-92 cells: 5.85 nM
[39]
  IC50, IFNγ secretion by NK-92 cells: 780 nM
[40]
  IC50, IFNγ secretion by NK-92 cells: 779 nM
[41]
  IC50, IFNγ secretion by NK-92 cells: 284 nM
[42]
  IC50, IFNγ secretion by NK-92 cells: 286 nM
[43]
  IC50, IFNγ secretion by NK-92 cells: 522 nM
[44]
  IC50, IFNγ secretion by NK-92 cells: 961 nM
[45]
  IC50, IFNγ secretion by NK-92 cells: 0.787 nM

## modified IL-18 polypeptide SEQ ID NO: 57 (E6K, C38S, K53A) (from UniProt Q14116 37-193) (ligand)
[46]
  Kd: 2.72 nM
  koff: 0.0031 s⁻¹
  kon: 1.14e+06 M⁻¹ s⁻¹

## modified IL-18 polypeptide SEQ ID NO: 59 (E6K, C38A, K53A) (from UniProt Q14116 37-193) (ligand)
[47]
  Kd: 36 nM

## wild type IL-18 (SEQ ID NO: 1, native sequence) (from UniProt Q14116 37-193) (ligand)
[47]
  Kd: 0.414 nM
[46]
  Kd: 0.27 nM
  koff: 0.000383 s⁻¹
  kon: 1.49e+06 M⁻¹ s⁻¹
